The results in this text go back to the nanobody polyreactivity screen of Harvey et al. (2022).

A short description of this data set: yeast display, Sf9 membrane polyspecificity reagent, FACS + sequencing; frameworks hold sequencing errors. Summed up: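 In a synthetic yeast display library (Saccharomyces cerevisiae BJ5465), nanobody expression was induced with galactose for 36–48 hours. FACS gates were set low and high (top ~1%) using anti-HA fluorescence for expression and streptavidin fluorescence for binding of the Sf9 membrane reagent. Each polyreactivity label is drawn from the gate of origin.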
Regarding “QVQLVESGGGLVQAGGSLRLSCAGSGRTFEINAMGWYRQAPGKERELVAAITVSGGSTYYADSVKGRFTISRDNAKNTVYLQMNSLKPEDTAVYYCAVEIVYGQGKEVNSWGQGTQVTVSS”, the “polyreactivity (PSR sort gate)” value is “low polyreactivity”.
In the case of “QVQLVESGGGLVQAGGSLRLSCAGSGRTFRTYTRGWYRQAPGKERELVAAISWSGSSTYYADSVKGRFTISRDNAKNTVYLQMNSLKPEDTAVYYCAARGLYDYGYWGQGTQVTVSS”, the “polyreactivity (PSR sort gate)” value was “high polyreactivity”.
Consider “QVQLVESGGGLVQAGGSLRLSCAGSGSIFHPYAMGWYRQAPGKERELVAAISKSGGNTYYADSVKGRFTISRDNAKNTVYLQMNSLKPEATAVYYCAALDYWGQGTQVTVSS”, for which the “polyreactivity (PSR sort gate)” value was “low polyreactivity”.
Turning to “QVQLVESGGGLVQAGGSLRLSCAGSGSIFSNNAMGWYRQAPGKERELVAAISASGGSTYYADSVKGRFTISRDNAKNTVYLQMNSLKPEDTAVYYCAARGYGWGQGTQVTVSS”, the “polyreactivity (PSR sort gate)” value was “high polyreactivity”.
Consider “QVQLVESGGGLVQAGGSLRLSCAGSGSSFAWNDMGWYRHAPGIERALVAAISTSDGSTYYADSVKGRFTISRDNAKNTVYLQMNSLNPEDTAVYYCAADVTRVFYGLYTGEYDYWGLGTQVTVSS”, for which the “polyreactivity (PSR sort gate)” value was “low polyreactivity”.
For the sequence “QVQLVESGGGLVQAGGSLRLSCAGSGSTFKYYAMGWYRQAPGKARELVAAIRTSGGRTYYADSVKGRFTISRDNAKNTVYLPMNSLKPEDTAVYYCNASSTQFGQRYEYWGQGTQVTVSS”, the “polyreactivity (PSR sort gate)” value is recorded as “high polyreactivity”.
With “QVQLVESGGGLVQAGGSLRLSCAGSGSTFRYNAMGWYRQAPGKERELVAAISQRGGSTYYADSVKGRFTISRDNANNTVYLQMNSLKPEDTAVYYCPGDYWGQGTQVTVSS”, the “polyreactivity (PSR sort gate)” value is given as “high polyreactivity”.
In the case of “QVQLVESGGGLVQAGGSLRLSCAGSGSTFYFYVMGWYRQAPGKDRELVAAITWSGGRTSYADSVKGRFTISRDNAKNTVYLQMNSLKPEDTAVYYCNTDGYPRLYIYDYWGQGTQVTVSS” it was “low polyreactivity”.
Take “QVQLVESGGGLVQAGGSLRLSCAGSGSTILYYVMGWYRQAPGKARELVAAITGTGGRTYYADSVKGRFTISRDNAKNTVYLQMNSLKPEDTAVYYCAADGKFEYDYWGQGTQVTVSS”: the “polyreactivity (PSR sort gate)” value is reported as “low polyreactivity”.
In the case of “QVQLVESGGGLVQAGGSLRLSCAHSGFIFSLYAMGWYIQAPGKERELVAAISRRGGNTYYADSVKGRFTISRDNGKNTVYLQMNSLKPVDTAVSYCNTGQRYGYDWGQGTQVTVSS”, the “polyreactivity (PSR sort gate)” value was “high polyreactivity”.
For the sequence “QVQLVESGGGLVQAGGSLRLSCAHSGSISSRYAMGWYRQAPGKERELVARITRSGGSTYYADSVKGRFTISRDNAKNTVYLQMNRLKPEDTAVYYCNKRGTEIGYDYWGQGTQVTVLS”, the “polyreactivity (PSR sort gate)” value was “low polyreactivity”.
With “QVQLVESGGGLVQAGGSLRLSCAPSGFIFYGYAMGWYRPAPGKERELVAAISRRGGSTYYADSVKGRFTISRDDAKNSVYLQMNSLKPEDTAVYYCAATYEVNYRKYGYWGQGTQVTVSS”, the “polyreactivity (PSR sort gate)” value was “high polyreactivity”.
Turning to “QVQLVESGGGLVQAGGSLRLSCAPSGFTFGDYAMGWYRQSPGTESELDAAISWSGGSTYYADSVKGRFTISRDNAKTTVYLQMNSLKPEDTAVYYCAAVDSATIEDDYWGQGTQVTVSS”, the “polyreactivity (PSR sort gate)” value is recorded as “high polyreactivity”.
For the sequence “QVQLVESGGGLVQAGGSLRLSCAPSGFTFRYYGMGWYRQAPGKERELVAAITRTGGSTYYADSVKGRFTISRDNAKYTVYLQMNSLKPEDTAVYFCGAGGSYAYVYWGQGTQVTVSS”, the “polyreactivity (PSR sort gate)” value is given as “high polyreactivity”.
On to “QVQLVESGGGLVQAGGSLRLSCAPSGFTFSQYAMGWYRQAPGKEREFVAAISRSGGSTYYADSVKGRFTISRDNAKNTVYLQMNSLKPEDTAVYYCAAGLVATFSRRGRASYRYNYWGHGTQVTVSS”, for which the “polyreactivity (PSR sort gate)” value is “high polyreactivity”.
In the case of “QVQLVESGGGLVQAGGSLRLSCAPSGFTFTYYAMGWYRQAPGQERELVAAITQSGGSTFYADSVQGRFTISRDNAKNTVYLQMNSLKPEDTAVYYCAADIDLYYDYDYWGQGTQVTVSS”, the “polyreactivity (PSR sort gate)” value is “low polyreactivity”.
Regarding “QVQLVESGGGLVQAGGSLRLSCAPSGGIYLYYVMGWYRQAPGKERELVADISGDDSTNYADSVKGRFTISRDNAKNTVYLQMNSLKPEDTAVYYCAAVPGLFYLPYEYWGQGTQVTVSS”, the “polyreactivity (PSR sort gate)” value is listed as “low polyreactivity”.
In the case of “QVQLVESGGGLVQAGGSLRLSCAPSGGTFTHNAMGWYRQAPGKEWELVAAISRSGGSTSYADSVKGRFTISRYNAMNTVYLQMNSLKPEDTAVYYCAALISRQRSYSRDYWGQGTQVTVSS”, the “polyreactivity (PSR sort gate)” value is reported as “high polyreactivity”.
Turning to “QVQLVESGGGLVQAGGSLRLSCAPSGIIFAYYAKGWYRQAPVKERELVASISSGGTTKYADSVKGRFTISRDNAKNTVYLQMNSLKPEDTAVYYCAAEHRWRSWDMDYWGQGTQVTVSS”, the “polyreactivity (PSR sort gate)” value was “low polyreactivity”.
“QVQLVESGGGLVQAGGSLRLSCAPSGIIFHKYAMGWYRQAPGTDRELVAVFTGRGGSTYYADSVKGRFTISRDFAKNTVYLQMNSLKPEDTAVYYCAAVTKSWRGATWYDYWGQGTQVTVSS”: the “polyreactivity (PSR sort gate)” value is listed as “high polyreactivity”.
With “QVQLVESGGGLVQAGGSLRLSCAPSGIIFIRYAMGWYRQAPGKERELVAAISWRGGSTYYADSVKGRFTISRDNAKNTVYLQMNSLKPEDTAVYYCAAGYFSYRRYDYWGQGTQVTVSS”, the “polyreactivity (PSR sort gate)” value is reported as “high polyreactivity”.
For “QVQLVESGGGLVQAGGSLRLSCAPSGIILAYYAMGWYRQAPGKERELVAAISRSGGITYYADSVKGRFTISRDNAKNTVYLQMNSLKPEDTAVYYCARYSSRPYDYWGQGTQVTVSS”, the “polyreactivity (PSR sort gate)” value is given as “high polyreactivity”.
For “QVQLVESGGGLVQAGGSLRLSCAPSGLIFYHYAMGWYRQAPGKERELVAGITRSGGSTYYADSVKGRFTISRDNAKNTVYLQMNSLKPEDTAVYYCAAKSLTTGKYGKYGYWGQGTQVTVSS”, the “polyreactivity (PSR sort gate)” value is recorded as “high polyreactivity”.
“QVQLVESGGGLVQAGGSLRLSCAPSGLIIWDYVMGWYRQAPGKERELVAAISRSGGRTYYADSVKGRFTISRDNAKNTVYLQMNSLKPEDTAVYYCAARVRFSYASRSGYWGQGTQVTVSS”: the “polyreactivity (PSR sort gate)” value is “high polyreactivity”.
With “QVQLVESGGGLVQAGGSLRLSCAPSGLTIVTYAMGWYRQAPRKERELVAAISRSGGSTYYADSVKGRFTISRDNAKNTVYLQMNSLKPEDSAVYYCNAYSYVDLWAVYRYDYWGQGTQVTVSS”, the “polyreactivity (PSR sort gate)” value is recorded as “high polyreactivity”.
As to “QVQLVESGGGLVQAGGSLRLSCAPSGRIFGHYAMGWYRQATGKERELVAAINWRGGSTYYADSVNGRFTISRDNAKNTVYLQMNSLKPEDTAVYYCAADWTKARDSIYDYWGQGTQVTVSS”, the “polyreactivity (PSR sort gate)” value is given as “low polyreactivity”.
As to “QVQLVESGGGLVQAGGSLRLSCAPSGRIFGVYAMGWYRQAPGKERELVATIRSSGTRTNYADSVKGRFTISRDNAKNTVYLQMNSLKPEDTAVYYCAAGGRPYKLDFTRSDYWGQGTQVTVSS”, the “polyreactivity (PSR sort gate)” value is recorded as “low polyreactivity”.
In the case of “QVQLVESGGGLVQAGGSLRLSCAPSGRIFKYNAMGWYRQAPGKERELVAAITSSGASTYYADSVKGRFTISRDIAKHTVYLQMNSLKPVVTAVYYCAARARRKYDYWGQGTQVTLSS”, the “polyreactivity (PSR sort gate)” value is given as “high polyreactivity”.
On to “QVQLVESGGGLVQAGGSLRLSCAPSGRIFRYYAMGWYRPAPGKERELVAAISSRGASTYYADSVKGRYTISRDNAKNTVYLQMNRVKPEDTAVYYCGVRTYVYHWSFSSLPYVYWGQGTQVTVSS”, for which the “polyreactivity (PSR sort gate)” value was “high polyreactivity”.
As for “QVQLVESGGGLVQAGGSLRLSCAPSGRIIRPYAKGWYIQAPGKERELVAAISVSGVITYYADSVKGRFTISRDNAKNTVYLQMNSLKPEDTAVYYCATDYTRRRWGRLYDYWGQGTQVTVSS”, the “polyreactivity (PSR sort gate)” value is listed as “low polyreactivity”.
In the case of “QVQLVESGGGLVQAGGSLRLSCAPSGRTFGSNTMGLYRQAPGKEIELVAGITFSSGSTYYADSVKGRFTISRDNANNTVYLQMNSLKPEDTAVYDCAVRNASKNRKYYYWGQGTQVTVSS” it was “high polyreactivity”; in that of “QVQLVESGGGLVQAGGSLRLSCAPSGRTFSRNAMGWYRQAPGKERELVAAISQRGVSTYYADSVKGSFTISRDNAQNSVYLQMNSLKPEDSAVYYCNTRGTYRYDYWGQGTQGTVSS”, “low polyreactivity”.
Regarding “QVQLVESGGGLVQAGGSLRLSCAPSGRTFVDYDMGWYRQAPGKERELVADINSGGSTYYADSVKGRFTISRDNAKNTVYLQMNSLKPEDTAVYYCAARYTFDRWKFGYWGQGTQVTVSS”, the “polyreactivity (PSR sort gate)” value was “high polyreactivity”.
With “QVQLVESGGGLVQAGGSLRLSCAPSGRTFWYNAMGWYRQAPGKERELVATITSGGRTSYADSVKGRFTISRDNAKNTVYLQMNSLKPEDTAVYYCAATTGWYGARYGYWGQGTQVTVSS”, the “polyreactivity (PSR sort gate)” value is reported as “high polyreactivity”.
The result for “QVQLVESGGGLVQAGGSLRLSCAPSGRTLIHYAMGWSRQAPGKEREFVATINIGGRTYADSVKGRFTISRDNAKTTVYLQMNSLKPEDSAVYYCDADHRYSARRSFPTLYDYWAQGTQVTVSS” reads “low polyreactivity”.
On to “QVQLVESGGGLVQAGGSLRLSCAPSGSIFAYYAMGWYRPAPGKERELVAAISKSGGRTYYADSVKGRFTISRDNAKNTVYLQMNSLKPEDTAVYYCAADGPGYTYDYWGQGTQVTVSS”, for which the “polyreactivity (PSR sort gate)” value is “high polyreactivity”.
The result for “QVQLVESGGGLVQAGGSLRLSCAPSGSIFGGYAMGWYRQAPGKERELVAGITYSGDSTYYADSVKGRFTISRDNAKYTVYLQMNSLKPEDTAVYYCNADQRVDHDDFDYWGQGTQVTVSS” reads “low polyreactivity”.
In the case of “QVQLVESGGGLVQAGGSLRLSCAPSGSIFGVYAMGWYRQAPGKERELVDTISWSAGSTYYADSVKGRFTISRDNAKNTVYLQMNSLKPVDTAVYYCGAGVRWLGLYDLFTFDYWGQGTQVTVSS” it was “low polyreactivity”.
For the sequence “QVQLVESGGGLVQAGGSLRLSCAPSGSIFWLYDMGWYRPAPGKERELVAAIDSGDSTKYADSVKGRFTISRDNAKNTVYLQMNSLKPEDTAVYYCNASRRYHVRAPYDYWGQGTQVTVSS”, the “polyreactivity (PSR sort gate)” value is “low polyreactivity”.
As to “QVQLVESGGGLVQAGGSLRLSCAPSGSILWLNAMGWYRQAPGKERELVADITRGGSTYYADSVKGRFTISRDNAKNTVYLQMNSLKPEDTAVYYCAAKRGKTYQRFDYWGQGTQVTVSS”, the “polyreactivity (PSR sort gate)” value was “high polyreactivity”.
“QVQLVESGGGLVQAGGSLRLSCAPSGSTFRTYAMGWYRQAPGKERELVAAISSGDNTNYADSVKGRFTISRDNAKNTAYLQMNSLKPEDTAVYYCASRAYRWRSFYTMYYCGQGTQVTVSS”: the “polyreactivity (PSR sort gate)” value is listed as “high polyreactivity”.
